Assay results: article PMC11236199

Tests used:
[1] = biological target: civet SARS CoV 007/2004 spike protein ectodomain (civet SARS CoV 007/2004 | bacteriophage T4); experiment: cryo-EM structure
[2] = biological target: civet SARS CoV SZ3/2003 spike protein ectodomain (civet SARS CoV SZ3/2003 | bacteriophage T4); experiment: cryo-EM structure

| Substance | stoichiometry N [1] | stoichiometry N [2] |
| --- | --- | --- |
| civet SARS CoV 007/2004 spike protein ectodomain (domain or fragment) | 3 |  |
| civet SARS CoV SZ3/2003 spike protein ectodomain (domain or fragment) |  | 3 |
